Columns and labels:
human serum albumin [1] = target: T1, human serum albumin (human, UniProt P02768 25-609); test: Biacore, immobilised HSA, pH 7.4
T1 construct: mature; Bought protein; biotinylated in the Octet and HTRF assays; also called HSA; HuSA
Protocol: (§1) Affinities for mouse, human, and cynomolgus serum were also measured at pH 7.4 for four (4) AFFIMER® binders using surface plasmon resonance (SPR) (FIG. 5, Table 5). […] A concentration titration of AFFIMER® monomers was run as analyte at a flow rate of 30 μl/min or 60 μl/min. Fc2-1, Fc3-1 and Fc4-1 kinetic data was blank subtracted and fit to a 1:1 Langmuir binding model (BIAcore Evalution software; GE) to calculate KD values.
The AFFIMER® polypeptides were produced and purified from E. coli as described in Example 3.

human serum albumin [2] = target: T1, human serum albumin; test: Octet biolayer interferometry, biotinylated albumin on SA sensors, pH 6.0
Method in brief: (§2)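 Biotinylated albumin was loaded on streptavidin sensors at 1 μg/ml for 600 s in PBS-T (0.01% Tween 20) + 1% casein at pH 6.0 or 7.4, 25° C, 1000 rpm. Kinetics came from a 1:1 global fit with reference-sensor subtraction.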

cynomolgus serum albumin [3] = target: T2, cynomolgus serum albumin (cynomolgus); test: as above
T2 construct: also called CSA; cyno serum albumin
T2 sequence (A2V9Z4 25-608): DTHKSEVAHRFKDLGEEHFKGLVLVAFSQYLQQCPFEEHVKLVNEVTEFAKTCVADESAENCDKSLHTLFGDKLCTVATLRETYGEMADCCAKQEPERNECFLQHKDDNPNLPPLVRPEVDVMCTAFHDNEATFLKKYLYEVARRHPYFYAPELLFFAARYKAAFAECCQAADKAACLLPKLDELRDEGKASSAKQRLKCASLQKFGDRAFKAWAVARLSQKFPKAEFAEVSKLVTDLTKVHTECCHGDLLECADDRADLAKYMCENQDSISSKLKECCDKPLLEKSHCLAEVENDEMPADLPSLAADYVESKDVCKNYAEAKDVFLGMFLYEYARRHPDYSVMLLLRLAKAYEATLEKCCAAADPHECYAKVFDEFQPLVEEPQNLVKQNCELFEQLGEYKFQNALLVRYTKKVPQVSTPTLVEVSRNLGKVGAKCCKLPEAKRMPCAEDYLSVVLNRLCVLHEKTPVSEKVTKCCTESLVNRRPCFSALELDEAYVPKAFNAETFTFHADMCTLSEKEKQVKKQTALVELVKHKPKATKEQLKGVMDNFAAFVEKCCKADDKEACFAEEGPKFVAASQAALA
Method in brief: as §2

mouse serum albumin [4] = target: T3, mouse serum albumin (mouse, UniProt P07724 25-608); test: as above
T3 construct: also called MSA
T3 sequence (P07724 25-608 limits assumed): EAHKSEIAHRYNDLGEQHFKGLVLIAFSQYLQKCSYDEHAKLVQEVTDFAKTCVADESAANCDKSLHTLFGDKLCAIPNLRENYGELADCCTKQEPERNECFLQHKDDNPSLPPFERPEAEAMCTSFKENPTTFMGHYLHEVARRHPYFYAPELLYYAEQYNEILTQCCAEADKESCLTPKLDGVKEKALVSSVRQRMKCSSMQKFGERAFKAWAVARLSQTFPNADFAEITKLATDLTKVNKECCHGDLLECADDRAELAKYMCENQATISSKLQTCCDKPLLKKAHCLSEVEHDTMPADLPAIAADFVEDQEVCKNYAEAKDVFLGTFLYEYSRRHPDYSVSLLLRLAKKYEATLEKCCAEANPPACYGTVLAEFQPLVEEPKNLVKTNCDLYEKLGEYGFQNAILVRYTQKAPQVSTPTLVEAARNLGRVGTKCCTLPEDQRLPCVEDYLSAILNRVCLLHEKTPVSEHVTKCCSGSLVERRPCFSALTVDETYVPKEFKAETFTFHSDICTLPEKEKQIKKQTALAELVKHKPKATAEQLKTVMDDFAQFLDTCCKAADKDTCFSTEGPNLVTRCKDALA
Method in brief: as §2

mouse serum albumin [5] = target: T3, mouse serum albumin; test: binding ELISA on coated MSA, pH 6.0
Protocol: (§3) Human (Sigma-Aldrich); Cynomolgus and Mouse (Abcam); Equine (Abcam); Canine (Abcam); Mouse (Sigma-Aldrich); Rabbit (Sigma-Aldrich); Porcine (Sigma-Aldrich);, and Rat (Sigma-Aldrich) serum albumin were coated overnight on 96 well plates (Corning Costar) at 1 μg/ml in PBS at the appropriate pH (pH 6.0 or 7.4). Plates were saturated using 5% Casein (Sigma-Aldrich) buffer in PBS. […] Plates were then washed and AFFIMER® proteins were detected using a biotinylated polyclonal antibody anti-Cystatin (R&D System) for 90 minutes. After washing, streptavidin-HRP (Thermo Fisher Scientific) was added and incubated for 30 minutes.
(§4) Briefly, PD-1 was coated overnight on the plate at 1 μg/ml in carbonate buffer. Then plates were saturated using 5% Casein/PBS buffer. […] After saturation, the mix was added to the plates and incubated for 90 minutes. Plates were then washed and the detection polyclonal antibody, biotinylated anti-PD-L1, was added. After washing the plates, streptavidin-HRP was added for 30 minutes. After a final wash, development of the reaction was performed using TMB (Pierce) and the plates were read using a plate reader at 450 nm (FIG. 26C).

canine serum albumin = canine serum albumin (canine, UniProt P49822 25-608); test: binding ELISA on coated albumin, pH 6.0, panel 'Canine SA Binding at pH 6.0'
Chain of canine serum albumin (P49822 25-608 limits assumed): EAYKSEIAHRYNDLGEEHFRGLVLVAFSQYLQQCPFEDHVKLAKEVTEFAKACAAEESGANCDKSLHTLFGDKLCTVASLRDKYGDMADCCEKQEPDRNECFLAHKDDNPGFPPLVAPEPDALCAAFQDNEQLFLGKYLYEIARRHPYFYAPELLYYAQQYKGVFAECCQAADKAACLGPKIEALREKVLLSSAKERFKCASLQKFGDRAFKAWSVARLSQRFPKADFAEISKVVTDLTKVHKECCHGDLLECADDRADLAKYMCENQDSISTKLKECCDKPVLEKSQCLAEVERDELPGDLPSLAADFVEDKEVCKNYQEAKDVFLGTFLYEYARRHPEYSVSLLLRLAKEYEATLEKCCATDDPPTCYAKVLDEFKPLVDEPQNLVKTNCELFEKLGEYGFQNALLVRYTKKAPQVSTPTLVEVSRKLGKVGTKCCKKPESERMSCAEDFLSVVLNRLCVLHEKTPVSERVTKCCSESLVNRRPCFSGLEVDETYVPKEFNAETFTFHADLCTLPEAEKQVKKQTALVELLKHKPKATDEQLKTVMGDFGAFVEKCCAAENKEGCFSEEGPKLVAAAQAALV

mouse serum albumin [6] = target: T3, mouse serum albumin; test: binding ELISA on coated albumin, pH 6.0, panel 'MSA Binding at pH 6.0'
Protocol: (§5) Briefly, ELISA was performed as follow:
as §3

human serum albumin [7] = target: T1, human serum albumin; test: Octet biolayer interferometry, pH 6.0
Protocol: (§6) Biotinylated antigen was captured onto SA sensors at 1 μg/ml for 600 seconds in a buffer comprising PBS-T (0.01% Tween 20)+1% casein at either pH 6.0 or 7.4. Association was carried out for 300 seconds and dissociation for 600 seconds, and regeneration was performed using 10 mM glycine pH 1.5 (GE Healthcare) for 3×5 seconds. All steps were carried out at 1000 rpm and 25° C. Purified AFFIMER® polypeptide in two-fold serial dilutions was analyzed at a starting concentration of approximately 10× K_{D value}. Kinetics analyses were carried out using the Octet data analysis software, subtracting the reference sensor (loaded with antigen), aligning the Y-axis to baseline, and using inter-step correction to align association to dissociation. Savitzky-Golay filtering was applied and the data processed. Analysis of the data was carried out with a 1:1 model, global fit, Rₘₐₓ unlinked by sensor.
(§7) AFFIMER® polypeptides were incubated with AcTEV for 1 hour at 30° C. as recommend by the manufacturer (Invitrogen) and removal of cleaved His tag by binding NiNTA resin (Generon) and collecting the cleaved protein flow through. […] Pharmacokinetic profile of IV-injected His tag cleaved AFFIMER® protein compared to C-terminally His-tagged AFFIMER® protein was evaluated.

cynomolgus serum albumin [8] = target: T2, cynomolgus serum albumin; test: Octet biolayer interferometry, pH 6.0
Protocol: as §6, §7

mouse serum albumin [9] = target: T3, mouse serum albumin; test: Octet biolayer interferometry, pH 6.0
Protocol: as §6, §7

cynomolgus serum albumin [10] = target: T2, cynomolgus serum albumin; test: binding ELISA on coated albumin, pH 6.0, panel 'CSA Binding at pH 6.0'
Protocol: as §5, §3

human serum albumin [11] = target: T1, human serum albumin; test: binding ELISA on coated albumin, pH 6.0, panel 'HSA Binding at pH 6.0'
human serum albumin [12] = target: T1, human serum albumin; test: Octet biolayer interferometry, pH 7.4
Protocol: as §6, §7

cynomolgus serum albumin [13] = target: T2, cynomolgus serum albumin; test: Octet biolayer interferometry, pH 7.4
Protocol: as §6, §7

mouse serum albumin [14] = target: T3, mouse serum albumin; test: Octet biolayer interferometry, pH 7.4
Protocol: as §6, §7

mouse serum albumin [15] = target: T3, mouse serum albumin; test: binding ELISA on coated MSA, panel title 'Affimer binding to MSA, pH 7' (legend: pH 7.4)
Protocol: as §3, §4

human serum albumin [16] = target: T1, human serum albumin; test: Biacore, immobilised HSA, pH 7.4; remark: listed apart in the source
Protocol: as §1

human serum albumin [17] = target: T1, human serum albumin; test: SPR (Biacore), immobilised HSA, Affimer analyte

Kd (human serum albumin [1]): 2.84 nM
koff (human serum albumin [1]): 0.00347 s⁻¹
kon (human serum albumin [1]): 1.22e+06 M⁻¹ s⁻¹
koff (human serum albumin [2]): 0.00198 s⁻¹
kon (human serum albumin [2]): 278000 M⁻¹ s⁻¹
koff (cynomolgus serum albumin [3]): 0.00717 s⁻¹
kon (cynomolgus serum albumin [3]): 68100 M⁻¹ s⁻¹
koff (mouse serum albumin [4]): 0.0447 s⁻¹
kon (mouse serum albumin [4]): 470000 M⁻¹ s⁻¹
EC50 (read off the curve) (mouse serum albumin [5]): ~0.7 nM
EC50 (read off the curve) (canine serum albumin): ~2 nM
EC50 (read off the curve) (mouse serum albumin [6]): ~0.7 nM
Kd (human serum albumin [7]): 11.9 nM
Kd (cynomolgus serum albumin [8]): 220 nM
Kd (mouse serum albumin [9]): 50.5 nM
EC50 (read off the curve) (cynomolgus serum albumin [10]): ~3 nM
EC50 (read off the curve) (human serum albumin [11]): ~0.04 nM
Kd (human serum albumin [12]): 7.74 nM
Kd (cynomolgus serum albumin [13]): 209 nM
Kd (mouse serum albumin [14]): 82 nM
EC50 (read off the curve) (mouse serum albumin [15]): ~6 nM
Kd (human serum albumin [16]): 3.34 nM
koff (human serum albumin [16]): 0.00563 s⁻¹
kon (human serum albumin [16]): 1.69e+06 M⁻¹ s⁻¹
Kd (human serum albumin [17]): 2.4 nM
koff (human serum albumin [17]): 0.00354 s⁻¹
kon (human serum albumin [17]): 1.48e+06 M⁻¹ s⁻¹
B1: HSA-41 (designed binder)
chain: MIPRGLSEAKPATPEIQEIVDKVKPQLEEKTNETYGKLEAVQYKTQVLANFFQRRWPGSTNYYIKVRAGDNKYMHLKVFNGPWKFRNTDRGADRVLTGYQVDKNKDDELTGFHHHHHH
notes: also called HSA-41 parent; HSA-41 AH parent
